The target in this assay is cynomolgus monkey CD122 on NK cells (cynomolgus monkey) (UniProt Q38J85). Description: flow cytometry of blood from cynomolgus monkeys after a single IV dose of 1 mg/kg.

A value given as a limit tells only on which side of the number the result lay.

Chain of cynomolgus monkey CD122 on NK cells (cynomolgus monkey) (Q38J85 27-551 limits assumed): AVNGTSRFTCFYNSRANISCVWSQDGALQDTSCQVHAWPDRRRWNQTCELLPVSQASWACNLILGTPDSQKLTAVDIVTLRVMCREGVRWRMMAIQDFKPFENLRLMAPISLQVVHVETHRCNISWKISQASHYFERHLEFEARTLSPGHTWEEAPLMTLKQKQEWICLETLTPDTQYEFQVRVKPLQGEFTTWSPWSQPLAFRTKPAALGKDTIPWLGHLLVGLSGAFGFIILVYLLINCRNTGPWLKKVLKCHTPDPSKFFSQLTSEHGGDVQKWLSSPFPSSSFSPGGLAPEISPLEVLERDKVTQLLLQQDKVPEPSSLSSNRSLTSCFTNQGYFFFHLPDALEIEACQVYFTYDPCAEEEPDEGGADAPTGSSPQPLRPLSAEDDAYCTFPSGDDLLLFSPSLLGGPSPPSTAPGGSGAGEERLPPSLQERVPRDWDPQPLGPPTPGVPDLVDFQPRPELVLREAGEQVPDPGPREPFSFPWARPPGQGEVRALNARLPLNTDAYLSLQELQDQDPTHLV

B1: MAB05 (antibody, V domains shown)
VH: EVQLLESGGGLVQPGGSLRLSCAASGFTVTSYAVHWVRQAPGKGLEWLGVIWSGGSTDYNAAFISRLTISKDNSKNTVYFQMNSLRAEDTAVYYCARAGDANYDGFAYWGQGTLVTVSS
VL: DIQMTQSPSSLSASVGDRVTITCQASQSVSFLYWYQQRPGKAPRLLIYDTSNLASGVPSRFSGSGSGTSYTFTISSLQPEDIATYYCQQWSTYPLTFGQGTKVEIK
In turn, B1 registered a CD122 receptor occupancy on NK cells greater than 90%.

B2: MAB06 (antibody, V domains shown)
VH: EVQLLESGGGLVQPGGSLRLSCAASGFTVTSYAVHWVRQAPGKGLEWLGVIWSGGSTDYNAAFISRLTISKDNSKNTVYFQMNSLRAEDTAVYYCARAGDANYDGFAYWGQGTLVTVSS
VL: DIQMTQSPSSLSASVGDRVTITCQASSSVSFMYWYQQRPGKAPRLLIYDTSNLASGVPSRFSGSGSGTSYTFTISSLQPEDIATYYCQQWSTYPLTFGQGTKVEIK
On to B2, for which the CD122 receptor occupancy on NK cells is greater than 90%.
